PMC9482650, “Quantitative fragmentomics allow affinity mapping of interactomes” (Nature Communications, 2022)
Values belong to the binder of their own block, whether it stands above or below them.

Columns and labels:
Experiment in all cases: holdup assay
Design in all cases: key: below the threshold = too weak to quantify, mostly under pKd 3.1 to 4
FRMPD3, Q5JV73 = target: FRMPD3, Q5JV73
GORASP1, Q9BQQ3 = target: GORASP1, Q9BQQ3
SCRIB_1, Q14160 = target: SCRIB_1, Q14160
SHANK1, Q9Y566 = target: T1, SHANK1, Q9Y566
T1 sequence (Q9Y566 658-767, limits assumed, looked up): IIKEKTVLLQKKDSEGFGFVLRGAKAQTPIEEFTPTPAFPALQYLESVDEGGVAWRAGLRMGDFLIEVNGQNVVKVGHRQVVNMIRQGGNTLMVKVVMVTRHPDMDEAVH

Inadl_8, Q8NI35 = target: Inadl_8, Q8NI35
PTPN3, P26045 = target: PTPN3, P26045
NHERF3_4, Q5T2W1 = target: T2, NHERF3_4, Q5T2W1
T2 sequence (Q5T2W1 373-468, limits assumed, looked up): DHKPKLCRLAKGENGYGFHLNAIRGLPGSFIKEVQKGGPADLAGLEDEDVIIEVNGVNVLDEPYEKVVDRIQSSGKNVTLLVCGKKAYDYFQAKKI

MAGI1_2, Q96QZ7 = target: MAGI1_2, Q96QZ7
LIN7C, Q9NUP9 = target: T3, LIN7C, Q9NUP9
T3 sequence (Q9NUP9 88-185, limits assumed, looked up): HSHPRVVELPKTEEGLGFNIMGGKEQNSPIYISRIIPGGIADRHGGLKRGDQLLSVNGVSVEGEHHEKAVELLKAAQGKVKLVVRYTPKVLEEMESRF

NHERF4_2, Q86UT5 = target: NHERF4_2, Q86UT5
SYNJ2BP, P57105 = target: T4, SYNJ2BP, P57105
T4 sequence (P57105 8-110, limits assumed, looked up): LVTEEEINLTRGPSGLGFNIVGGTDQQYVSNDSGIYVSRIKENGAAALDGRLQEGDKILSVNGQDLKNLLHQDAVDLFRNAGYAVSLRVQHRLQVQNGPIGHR

PDZRN4_1, Q6ZMN7 = target: PDZRN4_1, Q6ZMN7
NHERF3_1, Q5T2W1 = target: T5, NHERF3_1, Q5T2W1
T5 sequence (Q5T2W1 4-100, limits assumed, looked up): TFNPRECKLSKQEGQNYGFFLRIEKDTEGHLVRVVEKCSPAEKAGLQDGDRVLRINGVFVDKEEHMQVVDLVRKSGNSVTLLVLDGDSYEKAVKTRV

DFNB31_3, Q9P202 = target: T6, DFNB31_3, Q9P202
T6 sequence (Q9P202 811-907, limits assumed, looked up): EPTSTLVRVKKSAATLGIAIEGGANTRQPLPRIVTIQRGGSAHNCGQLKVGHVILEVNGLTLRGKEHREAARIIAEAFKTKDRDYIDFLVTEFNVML

MPP2, Q14168 = target: T7, MPP2, Q14168
T7 sequence (Q14168 180-250, limits assumed, looked up): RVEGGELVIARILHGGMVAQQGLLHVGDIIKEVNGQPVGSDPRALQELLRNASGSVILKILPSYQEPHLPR

NHERF2_2, Q15599 = target: NHERF2_2, Q15599
SNTG1, Q9NSN8 = target: T8, SNTG1, Q9NSN8
T8 sequence (Q9NSN8 52-150, limits assumed, looked up): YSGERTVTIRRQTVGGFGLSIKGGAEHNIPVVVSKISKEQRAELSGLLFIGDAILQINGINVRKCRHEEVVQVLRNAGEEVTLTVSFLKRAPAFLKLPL

DLG4_2, P78352 = target: DLG4_2, P78352
LNX2_2, Q8N448 = target: T9, LNX2_2, Q8N448
T9 sequence (Q8N448 334-432, limits assumed, looked up): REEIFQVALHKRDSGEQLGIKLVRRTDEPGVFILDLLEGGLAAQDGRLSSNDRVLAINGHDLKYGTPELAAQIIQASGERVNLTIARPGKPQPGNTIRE

GORASP2, Q9H8Y8 = target: GORASP2, Q9H8Y8
TJP1_2, Q07157 = target: TJP1_2, Q07157
MAST1, Q9Y2H9 = target: MAST1, Q9Y2H9
DLG3_2, Q92796 = target: T10, DLG3_2, Q92796
T10 sequence (Q92796 221-321, limits assumed, looked up): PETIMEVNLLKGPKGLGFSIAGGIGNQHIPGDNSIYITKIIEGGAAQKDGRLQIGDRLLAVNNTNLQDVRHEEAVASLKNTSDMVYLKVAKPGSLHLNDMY

RHPN1, Q8TCX5 = target: T11, RHPN1, Q8TCX5
T11 sequence (Q8TCX5 508-602, limits assumed, looked up): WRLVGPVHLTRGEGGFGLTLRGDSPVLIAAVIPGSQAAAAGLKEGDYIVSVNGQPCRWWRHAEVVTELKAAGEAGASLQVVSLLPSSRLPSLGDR

DLG4_1, P78352 = target: DLG4_1, P78352
LNX1_1, Q8TBB1 = target: LNX1_1, Q8TBB1
MAGI2_3, Q86UL8 = target: MAGI2_3, Q86UL8
[1] = plain residues with an end cap or a label only (N-terminal biotin on a linker: ado-ado)
[2] = plain residues with an end cap or a label only (N-terminal biotin on a linker: ahx)

Chain of PDZRN4_1, Q6ZMN7 (Q6ZMN7 213-318): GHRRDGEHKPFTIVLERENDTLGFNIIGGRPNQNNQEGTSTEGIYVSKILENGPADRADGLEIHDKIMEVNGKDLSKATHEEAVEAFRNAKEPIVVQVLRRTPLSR
Chain of PTPN3, P26045 (P26045 505-587): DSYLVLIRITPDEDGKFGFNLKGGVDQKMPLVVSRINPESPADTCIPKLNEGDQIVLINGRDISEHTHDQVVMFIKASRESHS
Chain of MAST1, Q9Y2H9 (Q9Y2H9 962-1065): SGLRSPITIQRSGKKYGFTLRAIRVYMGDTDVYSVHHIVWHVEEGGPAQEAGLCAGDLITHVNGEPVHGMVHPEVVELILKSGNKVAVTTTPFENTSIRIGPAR
Chain of MAGI1_2, Q96QZ7 (Q96QZ7 456-580): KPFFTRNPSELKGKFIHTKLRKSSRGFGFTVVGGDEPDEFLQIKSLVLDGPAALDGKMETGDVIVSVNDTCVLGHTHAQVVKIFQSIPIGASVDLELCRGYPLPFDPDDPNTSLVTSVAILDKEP
Chain of Inadl_8, Q8NI35 (Q8NI35 1425-1530): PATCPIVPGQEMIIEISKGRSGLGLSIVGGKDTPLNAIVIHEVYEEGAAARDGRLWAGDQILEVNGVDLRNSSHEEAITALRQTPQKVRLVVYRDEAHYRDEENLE
Chain of LNX1_1, Q8TBB1 (Q8TBB1 261-371): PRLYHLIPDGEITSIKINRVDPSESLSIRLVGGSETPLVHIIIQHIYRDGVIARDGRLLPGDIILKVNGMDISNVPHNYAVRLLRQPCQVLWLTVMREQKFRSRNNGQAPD
Chain of TJP1_2, Q07157 (Q07157 181-274): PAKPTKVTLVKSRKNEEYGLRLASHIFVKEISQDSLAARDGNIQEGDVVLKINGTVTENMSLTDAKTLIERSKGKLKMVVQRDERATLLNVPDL
Chain of SCRIB_1, Q14160 (Q14160 718-814): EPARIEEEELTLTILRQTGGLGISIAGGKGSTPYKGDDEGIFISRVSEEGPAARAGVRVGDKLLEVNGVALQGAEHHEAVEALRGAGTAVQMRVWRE
Chain of FRMPD3, Q5JV73 (Q5JV73 12-100): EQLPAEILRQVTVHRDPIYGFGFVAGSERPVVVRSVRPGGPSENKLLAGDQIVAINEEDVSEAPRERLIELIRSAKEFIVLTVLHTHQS
Chain of DLG4_2, P78352 (P78352 155-259): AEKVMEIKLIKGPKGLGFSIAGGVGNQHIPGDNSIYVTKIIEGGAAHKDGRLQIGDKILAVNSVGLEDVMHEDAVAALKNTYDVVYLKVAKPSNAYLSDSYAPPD
Chain of NHERF4_2, Q86UT5 (Q86UT5 220-308): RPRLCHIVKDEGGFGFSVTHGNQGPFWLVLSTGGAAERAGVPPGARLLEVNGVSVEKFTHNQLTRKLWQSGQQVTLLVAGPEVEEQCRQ
Chain of DLG4_1, P78352 (P78352 62-152): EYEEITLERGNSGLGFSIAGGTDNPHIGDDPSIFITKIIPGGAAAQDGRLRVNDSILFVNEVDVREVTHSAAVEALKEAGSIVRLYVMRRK
Chain of MAGI2_3, Q86UL8 (Q86UL8 600-682): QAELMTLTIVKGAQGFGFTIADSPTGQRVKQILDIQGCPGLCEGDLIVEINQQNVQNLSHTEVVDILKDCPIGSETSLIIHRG
Chain of GORASP1, Q9BQQ3 (Q9BQQ3 1-208): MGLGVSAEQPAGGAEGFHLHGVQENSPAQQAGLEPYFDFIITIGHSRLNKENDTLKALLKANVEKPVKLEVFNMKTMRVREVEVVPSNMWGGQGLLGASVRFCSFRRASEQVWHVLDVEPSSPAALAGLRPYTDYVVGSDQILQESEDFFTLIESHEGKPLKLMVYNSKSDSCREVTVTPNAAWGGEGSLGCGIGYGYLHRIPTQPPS
Chain of NHERF2_2, Q15599 (Q15599 142-238): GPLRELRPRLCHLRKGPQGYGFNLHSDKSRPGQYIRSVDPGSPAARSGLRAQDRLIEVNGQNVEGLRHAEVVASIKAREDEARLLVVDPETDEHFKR

pKd (FRMPD3, Q5JV73; [1]): below the threshold | pKd (GORASP1, Q9BQQ3; [1]): below the threshold | pKd (SCRIB_1, Q14160; [1]): 3.82 | pKd (SHANK1, Q9Y566; [1]): below the threshold | pKd (Inadl_8, Q8NI35; [1]): 3.88 | pKd (PTPN3, P26045; [1]): 4.19 | pKd (NHERF3_4, Q5T2W1; [1]): below the threshold | pKd (MAGI1_2, Q96QZ7; [1]): below the threshold | pKd (LIN7C, Q9NUP9; [1]): 3.48 | pKd (NHERF4_2, Q86UT5; [1]): below the threshold | pKd (SYNJ2BP, P57105; [1]): below the threshold | pKd (PDZRN4_1, Q6ZMN7; [1]): below the threshold | pKd (NHERF3_1, Q5T2W1; [1]): 3.66 | pKd (DFNB31_3, Q9P202; [1]): 3.85 | pKd (MPP2, Q14168; [1]): below the threshold | pKd (NHERF2_2, Q15599; [1]): below the threshold | pKd (SNTG1, Q9NSN8; [1]): below the threshold | pKd (DLG4_2, P78352; [1]): 3.88 | pKd (LNX2_2, Q8N448; [1]): below the threshold | pKd (GORASP2, Q9H8Y8; [1]): below the threshold | pKd (TJP1_2, Q07157; [1]): below the threshold | pKd (MAST1, Q9Y2H9; [1]): below the threshold | pKd (DLG3_2, Q92796; [1]): below the threshold | pKd (RHPN1, Q8TCX5; [1]): below the threshold | pKd (DLG4_1, P78352; [1]): below the threshold | pKd (LNX1_1, Q8TBB1; [1]): below the threshold | pKd (MAGI2_3, Q86UL8; [1]): below the threshold
Binder: GKKSVKHSKI [ACOT6, Q3I5F7]

pKd (FRMPD3, Q5JV73; [2]): below the threshold | pKd (GORASP1, Q9BQQ3; [2]): below the threshold | pKd (SCRIB_1, Q14160; [2]): below the threshold | pKd (SHANK1, Q9Y566; [2]): 4.24 | pKd (Inadl_8, Q8NI35; [2]): below the threshold | pKd (PTPN3, P26045; [2]): 4.52 | pKd (NHERF3_4, Q5T2W1; [2]): below the threshold | pKd (MAGI1_2, Q96QZ7; [2]): below the threshold | pKd (LIN7C, Q9NUP9; [2]): 3.47 | pKd (NHERF4_2, Q86UT5; [2]): below the threshold | pKd (SYNJ2BP, P57105; [2]): 4.49 | pKd (PDZRN4_1, Q6ZMN7; [2]): 4.16 | pKd (NHERF3_1, Q5T2W1; [2]): 5.34 | pKd (DFNB31_3, Q9P202; [2]): below the threshold | pKd (MPP2, Q14168; [2]): below the threshold | pKd (NHERF2_2, Q15599; [2]): 4.21 | pKd (SNTG1, Q9NSN8; [2]): below the threshold | pKd (DLG4_2, P78352; [2]): below the threshold | pKd (LNX2_2, Q8N448; [2]): below the threshold | pKd (GORASP2, Q9H8Y8; [2]): below the threshold | pKd (TJP1_2, Q07157; [2]): below the threshold | pKd (MAST1, Q9Y2H9; [2]): 4.25 | pKd (DLG3_2, Q92796; [2]): below the threshold | pKd (RHPN1, Q8TCX5; [2]): 4.17 | pKd (DLG4_1, P78352; [2]): below the threshold | pKd (LNX1_1, Q8TBB1; [2]): 4.09 | pKd (MAGI2_3, Q86UL8; [2]): below the threshold
Binder: TIVSWPGTFL [LNX1, Q8TBB1]
